Our source for the EC50 values is WO1989007452A1.

Broadly, the EC50 is the concentration giving half of the maximal effect. Low values mean an effect from little substance, high ones a need for much substance.

In the test the target is Campath-1 antigen (partially purified, obtained from a glycolipid extract from human spleen) (human) (UniProt P31358). The test can be described thus: direct binding ELISA on partially purified Campath-1 antigen coated on microtitre wells; detected with biotin-labelled anti-rat IgG2b; antibody concentration at 50% binding. In general terms: In an ELISA, binding on a coated surface is turned into a signal by an enzyme label.

For “RaVHCAMP-RaIgG2B (cloned rat heavy chain variable domain of YTH 34.5HL on rat IgG2b constant domains, with rat kappa light chain) (from UniProt P20761 1-333) (antibody)”, the EC50 was 1.01 µg/mL.
